Values joined by “and” are separate entries in the source; they are usually repeats but may differ in a detail not shown here. Equal values may be shown once.
B1: Phosphoglycerate kinase, P00560 (parent)
chain: MSLSSKLSVQDLDLKDKRVFIRVDFNVPLDGKKITSNQRIVAALPTIKYVLEHHPRYVVLASHLGRPNGERNEKYSLAPVAKELQSLLGKDVTFLNDCVGPEVEAAVKASAPGSVILLENLRYHIEEEGSRKVDGQKVKASKEDVQKFRHELSSLADVYINDAFGTAHRAHSSMVGFDLPQRAAGFLLEKELKYFGKALENPTRPFLAILGGAKVADKIQLIDNLLDKVDSIIIGGGMAFTFKKVLENTEIGDSIFDKAGAEIVPKLMEKAKAKGVEVVLPVDFIIADAFSADANTKTVTDKEGIPAGWQGLDNGPESRKLFAATVAKAKTIVWNGPPGVFEFEKFAAGTKALLDEVVKSSAAGNTVIIGGGDTATVAKKYGVTDKISHVSTGGGASLELLEGKELPGVAFLSEKK

Variants of: B1
Settings: Saccharomyces cerevisiae (strain ATCC 204508 / S288c), pH 7.5, 25 °C, GdnHCl, Sodium phosphate 20 mM, structure 3PGK, whole UniProt chain shown

Row | Variant | denaturant midpoint (higher = more stable) (CD, transition: 3) | unfolding free energy (CD, transition: 3) | ddG of mutation (higher = less stable) (Fluorescence) [kcal/mol] | denaturant m value (Fluorescence) [kcal/mol/M] | denaturant midpoint (higher = more stable) (Fluorescence) [M] | unfolding free energy (Fluorescence) [kcal/mol] | ddG of mutation (higher = less stable) (Fluorescence, transition: 3) | denaturant m value (Fluorescence, transition: 3) | denaturant midpoint (higher = more stable) (Fluorescence, transition: 3) | unfolding free energy (Fluorescence, transition: 3) | denaturant m value (CD, transition: 3) | ddG of mutation (higher = less stable) (CD, transition: 3) | ddG of mutation (higher = less stable) (CD) [kcal/mol] | denaturant m value (CD) [kcal/mol/M] | denaturant midpoint (higher = more stable) (CD) [M] | unfolding free energy (CD) [kcal/mol]
1 | Y49W W309Y | 0.55 M and 0.96 M | 5.93 kcal/mol and 2.34 kcal/mol | -1.46 | 12.7 | 0.54 | 6.84 | -0.58 kcal/mol | 5.4 kcal/mol/M | 0.92 M | 4.94 kcal/mol |  |  |  |  |  | 
2 | Y49W W334Y | 0.51 M and 0.91 M | 7.89 kcal/mol and 3.64 kcal/mol |  |  |  |  |  | 12.9 kcal/mol/M and 5 kcal/mol/M | 0.53 M and 0.9 M | 6.85 kcal/mol and 4.45 kcal/mol |  |  |  |  |  | 
3 | W309Y | 0.62 M and 0.84 M | 6.85 kcal/mol and 4.87 kcal/mol |  | 14.8 | 0.64 | 9.42 |  |  |  |  | 10.9 kcal/mol/M and 5.8 kcal/mol/M |  |  |  |  | 
4 | W334Y | 0.63 M and 0.82 M |  |  | 12.4 | 0.62 | 7.66 |  |  |  |  |  |  |  |  |  | 
5 | L400W | 0.42 M and 0.95 M | 3.4 kcal/mol and 5.06 kcal/mol |  | 10.7 | 0.39 | 4.15 |  |  |  |  | 8.1 kcal/mol/M and 5.3 kcal/mol/M | 2.68 kcal/mol and 3.31 kcal/mol |  |  |  | 
6 | Y49W | 0.41 M and 1.06 M | 4.31 kcal/mol and 3.54 kcal/mol |  |  |  |  |  |  | 0.42 M and 0.92 M | 5.31 kcal/mol and 3.8 kcal/mol |  | 1.77 kcal/mol and 4.83 kcal/mol |  |  |  | 
7 | F195W | 0.53 M | 5.44 kcal/mol |  |  |  |  |  |  | 0.52 M and 0.91 M | 6.3 kcal/mol and 2.68 kcal/mol | 10.2 kcal/mol/M | 0.64 kcal/mol |  |  |  | 
8 | Y123W | 0.86 M | 2.72 kcal/mol |  |  |  |  | 0.57 kcal/mol and 0.91 kcal/mol |  | 0.4 M and 0.91 M | 4.81 kcal/mol and 3.45 kcal/mol | 3.2 kcal/mol/M | 5.65 kcal/mol | 1.29 | 13.7 | 0.42 | 5.79
